The data set deals with the molecule itself. Kind of data set: SEC; gel filtration of the single purified protein, Superdex 75 16/60 calibrated with molecular weight standards; 50 mM Tris-HCl pH 7.5, 150 mM NaCl. On the technique in general: SEC sorts molecules by how far they enter the pores of the column.

B1: human Siah1 without the RING domain (amino acids 91-282) (domain or fragment, UniProt Q8IUQ4 91-282, looked up)
chain: ANSVLFPCKYASSGCEITLPHTEKADHEELCEFRPYSCPCPGASCKWQGSLDAVMPHLMHQHKSITTLQGEDIVFLATDINLPGAVDWVMMQSCFGFHFMLVLEKQEKYDGHQQFFAIVQLIGTRKQAENFAYRLELNGHRRRLTWEATPRSIHEGIATAIMNSDCLVFDTSIAQLFAENGNLGINVTISMC
notes: human Siah1 without the RING domain, amino acids 91-282 of UniProt Q8IUQ4 (the results say residues 90-282); theoretical mass of a monomer 21,897 Da; The 15N-labelled form was used in the NMR experiment and the unlabelled form in gel filtration; it says only 'a similar protocol to that for PEG3-SCAN'; also called E3 ubiquitin-protein ligase Siah1; 15N-labeled Siah1; source: E. coli, purified by a …
As to B1, the stoichiometry N (usually a count of units in the complex or per binding partner) came out at 2.

B2: SCAN domain of human paternally expressed gene 3 protein (PEG3), amino acids 40-130 (domain or fragment)
chain: GHMTDSEFFHQRFRNLIYVEFVGPRKTLIKLRNLCLDWLQPETRTKEEIIELLVLEQYLTIIPEKLKPWVRAKKPENCEKLVTLLENYKEMYQP
notes: three non-native residues (Gly-His-Met) left at the N-terminus after TEV digestion; SCAN domain of human PEG3, amino acids 40-130 of UniProt Q9GZU2; theoretical mass of the construct 11,434 Da; Homodimer by gel filtration and in the crystal; The gene was synthetic (GenScript), in a modified pET15b vector; also called PEG3-SCAN; PEG3-SCAN domain; source: E. coli Bl21 (DE3) Gold, purified (HisTrap, …)
As to B2, the “stoichiometry N” value came to 2.

These data come from paper PMC3720700, “Structure of the SCAN Domain of Human Paternally Expressed Gene 3 Protein” (PLoS ONE, 2013).
